Where no end group is shown, it is not given here.
How the values were obtained:
human TAP2 protein = biological target: T1, human TAP2 protein (human, UniProt Q03519 1-686); experiment: western blot of lysates of HEK293T cells expressing TAP2
T1 construct: It is an intracellular protein; also called recombinant TAP2
T1 sequence: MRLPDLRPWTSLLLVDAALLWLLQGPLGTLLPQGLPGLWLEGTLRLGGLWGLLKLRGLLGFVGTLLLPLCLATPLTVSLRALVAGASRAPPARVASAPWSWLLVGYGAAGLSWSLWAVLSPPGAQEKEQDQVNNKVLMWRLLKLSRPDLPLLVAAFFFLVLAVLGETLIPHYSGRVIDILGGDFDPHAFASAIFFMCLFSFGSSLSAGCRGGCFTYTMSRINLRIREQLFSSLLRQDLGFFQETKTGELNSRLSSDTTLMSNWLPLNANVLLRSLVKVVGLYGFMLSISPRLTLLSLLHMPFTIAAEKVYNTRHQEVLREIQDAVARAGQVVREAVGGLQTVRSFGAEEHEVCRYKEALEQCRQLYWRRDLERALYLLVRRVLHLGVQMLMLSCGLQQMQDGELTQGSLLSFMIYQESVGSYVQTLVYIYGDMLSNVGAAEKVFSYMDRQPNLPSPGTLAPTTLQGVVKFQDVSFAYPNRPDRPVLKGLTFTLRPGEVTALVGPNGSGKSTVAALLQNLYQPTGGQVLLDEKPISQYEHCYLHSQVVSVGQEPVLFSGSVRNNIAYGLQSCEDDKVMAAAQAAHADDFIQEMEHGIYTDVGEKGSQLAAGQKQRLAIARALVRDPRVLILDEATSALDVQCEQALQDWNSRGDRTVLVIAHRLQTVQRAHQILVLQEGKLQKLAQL
Method: Rabbit monoclonal antibody S14H22L21 was applied onto formalin fixed paraffin embedded tissue samples to assess the staining patterns of the antibody by IHC as described in Example 1. Tissue samples included the positive and negative controls listed in Example 1, 8 ccRCC tissues, and a tour of tumor array (see FIGS. 4A-4B and 5A-5C). Western blot analysis was carried out to assess the specificity of S14H22L21. Cell lysates from HEK293T cells, HEK293T cells expressing TAP1, and HEK293T cells expressing TAP2 were analyzed alongside lysates from a negative control cell line (RPMI6226) and two positive control cell lines (HDLM2 and U266B1).

human TAP1 protein = biological target: T2, human TAP1 protein (human, UniProt Q03518 1-748); experiment: IHC on sections of cell blocks of 293T, 293T-TAP1 and 293T-TAP2 cells
T2 construct: It is an intracellular protein; also called recombinant TAP1
T2 sequence: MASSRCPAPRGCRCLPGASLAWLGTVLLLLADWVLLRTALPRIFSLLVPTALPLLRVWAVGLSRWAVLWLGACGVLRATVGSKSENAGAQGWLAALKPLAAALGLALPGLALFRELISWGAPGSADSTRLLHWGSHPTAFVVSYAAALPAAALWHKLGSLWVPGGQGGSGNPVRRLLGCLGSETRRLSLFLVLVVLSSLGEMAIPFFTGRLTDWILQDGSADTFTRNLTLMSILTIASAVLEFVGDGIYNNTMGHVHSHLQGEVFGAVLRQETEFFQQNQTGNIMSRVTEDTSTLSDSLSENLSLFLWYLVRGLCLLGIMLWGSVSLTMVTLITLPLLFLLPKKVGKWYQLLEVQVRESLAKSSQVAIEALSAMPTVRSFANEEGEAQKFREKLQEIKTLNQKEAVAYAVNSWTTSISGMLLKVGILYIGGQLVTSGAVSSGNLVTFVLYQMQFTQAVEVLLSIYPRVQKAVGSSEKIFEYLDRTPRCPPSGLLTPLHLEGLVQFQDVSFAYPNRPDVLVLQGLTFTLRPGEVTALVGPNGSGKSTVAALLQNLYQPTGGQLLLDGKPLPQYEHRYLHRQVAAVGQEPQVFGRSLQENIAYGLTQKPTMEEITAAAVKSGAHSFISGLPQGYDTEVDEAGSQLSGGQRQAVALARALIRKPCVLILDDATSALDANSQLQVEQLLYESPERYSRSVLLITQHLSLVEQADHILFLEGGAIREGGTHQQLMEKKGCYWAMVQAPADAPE
Excerpt: anti-TAP1 rabbit monoclonal primary antibodies were directed against the sequence […] (SEQ ID NO: 23), which represents amino acids 625-640 of human TAP1. The peptide was synthesized and covalently conjugated to keyhole limpet haemocyanin (KLH) carrier protein. Rabbits were immunized with KLH-conjugated peptide with complete Freund's adjuvant followed by a series of booster injections of the same immunogen in incomplete Freund's adjuvant. The rabbit that produced the best positive polyclonal antibody by immunohistochemistry (IHC) was chosen for monoclonal development. IHC staining was performed on a BenchMark automated slide stainer at Roche Diagnostics in Tucson, AZ. The staining procedure included deparaffinization, pretreatment using standard Cell Conditioning 1, incubation with antibody (TAP1: 0.925 μg/mL) at 36° C. for 16 min. […] TAP1 was detected by immunohistochemistry (IHC) using OptiView Universal DAB detection kit (Ventana).
Rabbit monoclonal antibody S14H22L21 was applied onto formalin fixed paraffin embedded tissue samples to assess the staining patterns of the antibody by IHC as described in Example 1. […] Cell lysates from HEK293T cells, HEK293T cells expressing TAP1, and HEK293T cells expressing TAP2 were analyzed alongside lysates from a negative control cell line (RPMI6226) and two positive control cell lines (HDLM2 and U266B1).

[1] = biological target: T3, human TAP1 peptide DGKPLPQYEHRYLHR (human, also: conjugated to KLH for immunisation); experiment: raised against the peptide; ELISA screen of antibody-expressing cells on the immunogenic peptide (Example 1)
T3 construct: Synthetic peptide, conjugated to KLH for immunisation; also called immunogenic peptide
T3 peptide: DGKPLPQYEHRYLHR

B1: rabbit anti-human TAP1 monoclonal antibody S14H22L21 (antibody, V domains shown)
VH: QSVKESEGGLFKPTDTLTLTCTVSGFSLSSYEVIWVRQAPGKGLEWIGNIGWRDTTFYANWAKSRSTFTRDTNLNTVTLKMTSLTAADTATYFCARDNGYFGIDYWGPGTLVTVSS
VL: DIVMTQTPASVEAAVGGTVTIKCQASQSISNYLAWYQQKPGQPPKLLIYKASTLASGVPSRFSGSGSGTQFTLTISGVQCDDAATYYCQQDFNYRNIENVFGGGTGVVVK
notes: Recombinant rabbit monoclonal, purified on Protein A; also called clone S14H22L21; TAP1 antibody
B1: no binding (human TAP2 protein); binds (human TAP1 protein); binds [1].

— US20260016475A1 (VENTANA MEDICAL SYSTEMS, published 2026)
